Measured values taken from patent US20230250170A1 (Regeneron, published 2023).

T1: pig NPR1 extracellular domain expressed with a C-terminal myc-myc-hexahistidine (pig)
T1 chain: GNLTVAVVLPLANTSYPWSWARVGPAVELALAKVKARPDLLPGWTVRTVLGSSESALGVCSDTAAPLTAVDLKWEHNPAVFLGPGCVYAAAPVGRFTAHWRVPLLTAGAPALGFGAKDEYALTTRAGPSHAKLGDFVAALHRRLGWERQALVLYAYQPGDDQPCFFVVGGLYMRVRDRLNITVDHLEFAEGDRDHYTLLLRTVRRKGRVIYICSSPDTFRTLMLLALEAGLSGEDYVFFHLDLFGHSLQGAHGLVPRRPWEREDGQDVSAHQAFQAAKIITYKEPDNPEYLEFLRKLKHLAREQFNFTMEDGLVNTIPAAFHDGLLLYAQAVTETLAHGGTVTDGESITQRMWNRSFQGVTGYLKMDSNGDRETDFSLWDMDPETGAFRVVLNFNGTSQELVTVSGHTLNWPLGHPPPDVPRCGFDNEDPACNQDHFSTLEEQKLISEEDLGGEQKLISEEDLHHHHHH

T2: dog NPR1 extracellular domain expressed with a C-terminal myc-myc-hexahistidine (dog)
T2 chain: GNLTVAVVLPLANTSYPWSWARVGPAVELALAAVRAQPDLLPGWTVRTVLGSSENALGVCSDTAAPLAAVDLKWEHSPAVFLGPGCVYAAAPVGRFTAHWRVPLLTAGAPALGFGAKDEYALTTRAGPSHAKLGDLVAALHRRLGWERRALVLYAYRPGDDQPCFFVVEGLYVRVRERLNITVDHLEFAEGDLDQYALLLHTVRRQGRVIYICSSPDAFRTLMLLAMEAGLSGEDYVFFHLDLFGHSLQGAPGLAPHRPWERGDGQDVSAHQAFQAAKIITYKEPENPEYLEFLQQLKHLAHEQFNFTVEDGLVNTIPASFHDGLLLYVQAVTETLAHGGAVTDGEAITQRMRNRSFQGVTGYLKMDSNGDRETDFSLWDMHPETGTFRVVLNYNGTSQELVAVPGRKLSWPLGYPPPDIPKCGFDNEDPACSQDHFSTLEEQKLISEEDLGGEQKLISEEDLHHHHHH


Columns and labels:
[1] = molecular target: T1, pig NPR1 extracellular domain expressed …; assay: SPR Biacore 8K, mAb captured via anti-hFc, 37 C
Description: (§1) The equilibrium dissociation constant (KD) for different NPR1 reagents binding to purified anti-NPR1 monoclonal antibodies (mAbs) were determined using a real-time surface plasmon resonance (SPR) based Biacore 8k biosensor. All binding studies were performed in 10 mM HEPES, 150 mM NaCl, 3 mM EDTA, and 0.05% v/v Surfactant P20, pH 7.4 (HBS-EP) running buffer at 25° C. and 37° C. The Biacore CM5 sensor chip surface was first derivatized by amine coupling with anti-human Fc specific antibody to capture anti-NPR1 mAbs. Binding studies were performed on human NPR1 extracellular domain expressed with a C-terminal myc-myc-hexahistidine (hNPR1-MMH; SEQ ID NO:74), monkey NPR1 extracellular domain expressed with a C-terminal myc-myc-hexahistidine (mfNPR1-MMH; SEQ ID NO:75), mouse NPR1 extracellular domain expressed with a C-terminal myc-myc-hexahistidine (mNPR1-MMH; SEQ ID NO:76), dog NPR1 extracellular domain expressed with a C-terminal myc-myc-hexahistidine (dog_NPR1-MMH; SEQ ID NO:77), pig NPR1 extracellular domain expressed with a C-terminal myc-myc-hexahistidine (pig_NPR1-MMH; SEQ ID NO:78), and hNPR1-MMH+10×hANP.
(§2) Different concentrations (40 nM-0.625 nM, 4-fold serial dilutions) of hNPR1-MMH, mfNPR1-MMH, hNPR1-MMH in the presence of 10-fold concentration of hANP, or a fixed concentration (40 nM) of mNPR1-MMH, dog_NPR1-MMH, pig_NPR1-MMH were prepared in HBS-EP running buffer, and then injected for 150 sec at a flow rate of 30 μL/min, while the dissociation of mAb bound different NPR1 reagents was monitored for 30 minutes in HBS-EP running buffer. At the end of each cycle, the anti-NPR1 mAb capture surface was regenerated using a 12 sec injection of 10 mM phosphoric acid. The association rate (ka) and dissociation rate (kd) were determined by fitting the real-time binding sensorgrams to a 1:1 binding model with mass transport limitation using Biacore insight evaluation software. Binding dissociation equilibrium constant (KD) and dissociative half-life (t½) were calculated from the kinetic rates as: […]

[2] = molecular target: T2, dog NPR1 extracellular domain expressed …; assay: SPR Biacore 8K, mAb captured via anti-hFc, 37 C
Description: as §1, §2

[3] = molecular target: T3, mouse NPR1 extracellular domain expressed with a C-terminal myc-myc-hexahistidine (mouse, UniProt P18293 29-469); assay: SPR Biacore 8K, mAb captured via anti-hFc, 37 C
T3 construct: also called mNPR1-MMH
Description: as §1, §2
Target sequence in this assay (P18293 other isoform, or with tags, fused parts or gaps): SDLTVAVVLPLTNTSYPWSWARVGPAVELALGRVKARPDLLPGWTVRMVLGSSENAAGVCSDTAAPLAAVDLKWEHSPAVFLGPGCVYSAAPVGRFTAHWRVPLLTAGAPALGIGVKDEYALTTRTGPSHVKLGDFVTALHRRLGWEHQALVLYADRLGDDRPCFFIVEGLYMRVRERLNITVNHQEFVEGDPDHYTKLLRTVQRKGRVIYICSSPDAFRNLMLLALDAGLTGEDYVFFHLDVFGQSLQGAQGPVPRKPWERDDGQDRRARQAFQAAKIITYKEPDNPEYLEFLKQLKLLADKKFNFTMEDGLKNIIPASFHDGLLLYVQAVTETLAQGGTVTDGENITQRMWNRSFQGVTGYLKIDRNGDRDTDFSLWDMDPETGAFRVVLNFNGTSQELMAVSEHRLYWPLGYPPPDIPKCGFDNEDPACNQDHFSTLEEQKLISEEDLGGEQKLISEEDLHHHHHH

[4] = molecular target: T4, monkey NPR1 on HEK293/mfNPR1 cells in the presence of 100 nM hBNP (monkey (Macaca fascicularis); human); assay: ECL cell-binding immunoassay (MSD), HEK293/mfNPR1, +100 nM hBNP
T4 construct: also called HEK293/mfNPR1 +100 nM hBNP
Description: (§3) Cultures of the cell lines described above were rinsed once in 1×PBS buffer without Ca²⁺/Mg²⁺ and incubated for 10 minutes at 37° C. with Enzyme Free Cell Dissociation Solution to detach cells from the flask. The collected cell pellets were washed once with and resuspended in 1×PBS with Ca²⁺/Mg²⁺ and then cells were counted with a Cellometer™ Auto T4 cell counter (Nexcelom Bioscience, Lawrence, Mass.). Approximately 2.0×10⁴ cells per well were seeded onto 96-well carbon electrode plates (Meso Scale Diagnostics, Rockville, Md.) and incubated for 1 hour at 37° C. Nonspecific binding sites were blocked using 2% BSA (w/v) in 1×PBS containing Ca²⁺/Mg²⁺ for 1 h at room temperature. Subsequently, HEK293/hNPR1 and HEK293/mfNPR1 cells were incubated for 0.5 hour at room temperature with 10 nM hANP (Tocris, Minneapolis, Minn.), 100 nM hBNP (Tocris, Minneapolis, Minn.), or sample dilution buffer alone, while HEK293 cells were treated with sample dilution buffer only. Without washing, serial dilutions of anti-NPR1, Comparator 1 or the isotype control antibody, ranging from 1.7 pM to 100 nM, or buffer containing no antibody were added to the cells followed by 1 hour incubation at room temperature. Plates were then washed to remove unbound antibodies, hANP, and hBNP using an AquaMax2000 plate washer with a cell washing head (MDS Analytical Technologies, Sunnyvale, Calif.). The plate-bound antibodies were detected with a SULFO-TAG™-conjugated polyclonal goat anti-human IgG antibody specific for heavy and light chains (Jackson Immunoresearch, West Grove, Pa.) that was incubated with the cells for 1 hour at room temperature.
(§4) After washes, plates were developed with Read Buffer (Meso Scale Diagnostics, Rockville, Md.) according to manufacturer's recommended procedure and luminescent signals were recorded with a SECTOR Imager 600 (Meso Scale Diagnostics, Rockville, Md.). The binding signals in a unit of RLU were analyzed as a function of the antibody concentration and data were fitted with a sigmoidal (four-parameter logistic) dose-response model using R statistical package (open source).

[5] = molecular target: T5, monkey (Macaca fascicularis) NPR1 on HEK293/mfNPR1 cells (monkey (Macaca fascicularis)); assay: ECL cell-binding immunoassay (MSD), HEK293/mfNPR1, no ligand added
T5 construct: whole, on cells; No ligand added
Description: as §3, §4

[6] = molecular target: T6, monkey NPR1 on HEK293/mfNPR1 cells in the presence of 10 nM hANP (monkey (Macaca fascicularis); human); assay: ECL cell-binding immunoassay (MSD), HEK293/mfNPR1, +10 nM hANP
T6 construct: also called HEK293/mfNPR1 +10 nM hANP
Description: as §3, §4

[7] = molecular target: T1, pig NPR1 extracellular domain expressed …; assay: SPR Biacore 8K, mAb captured via anti-hFc, 25 C
Description: as §1, §2

[8] = molecular target: T2, dog NPR1 extracellular domain expressed …; assay: SPR Biacore 8K, mAb captured via anti-hFc, 25 C
Description: as §1, §2

[9] = molecular target: T3, mouse NPR1 extracellular domain …; assay: SPR Biacore 8K, mAb captured via anti-hFc, 25 C
Description: as §1, §2

T6 sequence (P01160 124-151): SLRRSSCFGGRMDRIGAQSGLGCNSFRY
T4 sequence (P16860 103-134): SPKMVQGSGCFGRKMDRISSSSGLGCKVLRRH

Binder	40 nM Ag Bound (RU) [1] [RU]	Kd [1] [nM]	koff [1] [s⁻¹]	kon [1] [M⁻¹ s⁻¹]	t½ [1] [min]	40 nM Ag Bound (RU) [2] [RU]	40 nM Ag Bound (RU) [3] [RU]	EC50 [4] [nM]	EC50 [5] [nM]	EC50 [6] [nM]	40 nM Ag Bound (RU) [7] [RU]	Kd [7] [nM]	koff [7] [s⁻¹]	kon [7] [M⁻¹ s⁻¹]	t½ [7] [min]	40 nM Ag Bound (RU) [8] [RU]	binding result [8]	40 nM Ag Bound (RU) [9] [RU]	binding result [9]	binding result [1]
REGN7548 (antibody, human IgG4 S228P, kappa, V domains shown, also called mAb38090) VH: QVQLVQSGAEVKKPGASVKVSCKASGYTFTSYYIHWVRQAPGQGLEWMGIISPSDGYTSYAQNFQGRVTMTRDTSTNTVYMDLSSLRSEDTAMFYCARNDPLTTVALDYWGQGTLVTVSS VL: AIQMTQSPSSLSASVGDRVTITCRASQGIRYDLGWFQQKPGKAPKLLIHAASSLQSGVPSRFSGSGSGTDFTLTISSLQPEDFATYYCLQDYNYPFTFGQGTKLEIKR	14	42.1	0.00927	220000	1.2	0	0	0.56	0.56	1.2	11	35.8	0.00427	119000	2.7	0	no binding (tested: 40 nM)	0	no binding (tested: 40 nM)	
H4H22034 (antibody, human IgG4 S228P, kappa, V domains shown, also called H4H22034N; mAb22034) VH: EVQLLESGGDLVQPGGSLRLSCAASGFTFSDYAMIWVRQTPGKGLEWVSGISGGGGSTDYADSVKGRFTTSRDNVKNAMYLQMNSLRTEDTAVYYCAREDQLPSYHNYYGMDVWGQGTTVTVSS VL: DIQMTQSPSSVSASVGDRVTITCRASQGINNYLAWFQQKPGKAPKSLIYGASSLQSGVPSKFSGSRSGIDFTLTISSLQPEDFATYYCQQYNSYPYTFGQGTKLEIKR	0					0	0	0.42	0.33	0.67	0					0	no binding (tested: 40 nM)	0	no binding (tested: 40 nM)	no binding (tested: 40 nM)
REGN7541 (antibody, human IgG4 S228P, kappa, V domains shown, also called mAb38067) VH: EVQLVESGGGLVQPGGSLRLSCAASGFTFSSYAMSWVRQAPGKGLEWVSTISGSGTNTYYADSVKGRFTISNDNSKNTLYLQMNSLRAEDTAVYYCANYDILTGHSFEYWGQGTLVTVSS VL: AIQMTQSPSSLSASVGDRVTITCRASQGIRNDLGWYQQKPGKAPELLIYAASRLPSGVPLRFSGSGSGTDFTLTISSLQPEDVATYYCLQDYNYPFTFGPGTKVDIKR	0					0	0	0.92	1.4	2.9	0					0	no binding (tested: 40 nM)	0	no binding (tested: 40 nM)	no binding (tested: 40 nM)
REGN7544 (antibody, human IgG4 S228P, kappa, V domains shown, also called mAb38072) VH: EVQLVESGGGLVQPGGSLRLSCAASGFSFVSYVMGWVRQAPGKGLEWVSSISGSLTNTYYADPVKGRFTISRDNSKNTLYLQMNSLRAEDTAAYYCVTYDILTGHLFDYWGQGTLVTVSS VL: AIQMTQSPSSLSASVGDRVTITCRSSQGIRNDFGWYQQKPGKAPKLLIYAASRLQSGVPSRFSGSGSGTDFTLTINNLQPEDFATYYCLQDYTYPFTFGPGTKVDIKR	5	98.1	0.00947	96500	1.2	0	0	1.7	1.7	4.2	2	122	0.00679	55800	1.7	0	no binding (tested: 40 nM)	0	no binding (tested: 40 nM)	
